From US20230399394A1 (SUNSHINE GUOJIAN PHARMACEUTICAL SHANGHAI, published 2023)
Changes are numbered by the printed parent chain. Values belong to the binder of their own block, whether it stands above or below them.

Legend:
Human IL-33-his [1] = biological target: T1, Human IL-33-his (human, UniProt O95760 112-270, biotinylated with EZ-Link NHS-Biotin where used as IL-33-his-biotin); experiment: cell-based or functional assay
T1 sequence: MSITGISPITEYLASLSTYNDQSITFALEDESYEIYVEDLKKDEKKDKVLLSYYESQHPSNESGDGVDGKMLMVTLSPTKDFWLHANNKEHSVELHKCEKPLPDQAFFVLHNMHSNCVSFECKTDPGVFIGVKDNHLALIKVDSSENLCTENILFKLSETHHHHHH

[2] = biological target: T2, IL-33 protein without any mutation (WT) (human, UniProt O95760 112-270); experiment: ELISA as Example 9; row WT-4
T2 construct: Control of the alanine scan (four runs WT-1 to WT-4); also called WT-1; WT-2
T2 sequence: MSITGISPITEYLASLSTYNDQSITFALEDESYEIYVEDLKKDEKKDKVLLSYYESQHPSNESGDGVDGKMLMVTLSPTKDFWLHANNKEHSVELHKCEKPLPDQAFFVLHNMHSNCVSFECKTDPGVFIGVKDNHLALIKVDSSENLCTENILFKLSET
Method: (§1) SA protein was diluted to 2 μg/mL to coat ELISA plate at 100 μL/well overnight at 4° C. The plate was washed with PBST (PBS containing 0.05% Tween20) for 3 times, and blocked with 2% BSA prepared in PBS at 200 μL/well, at room temperature for 2 h. After the plate was washed twice with PBST, IL-33-his-biotin protein was diluted to 1 μg/mL with 1% BSA prepared in PBST, and was added to ELISA plate at 100 μL/well. The plate was incubated at room temperature for 1 h, and each monoclonal antibody was diluted with 1% BSA prepared in PBST in a 3-fold gradient. The highest concentration of antibody was 10 μg/mL, and the antibody was diluted for 12 gradients. Each diluted monoclonal antibody was added to ELISA wells with 100 μL/well, and the plate was incubated at room temperature for 1 h. Each sample was added to duplicate wells in parallel. The plate was washed with PBST for 3 times, and HRP-anti human IgG Fc secondary antibody prepared with PBST was diluted at an appropriate ratio, and was added to ELISA wells at 100 μL/well. […] Each reaction solution was shaken uniformly and OD450 nm was read on a microplate reader. The data was analyzed and EC₅₀ was calculated.
(§2) Subsequently, according to the experimental method of Example 9, the affinity of the above mutant proteins to 874F7-Hu1 was determined, and IL-33 proteins (WT-1, WT-2, WT-3, and WT-4) without any mutation were set as controls.

[3] = biological target: T3, IL-33 mutant protein E62A (human, UniProt O95760 112-270); experiment: ELISA as Example 9; row E62A
T3 construct: Prokaryotic expression
T3 chain: T2 sequence with E62A
Method: as §1, §2

Human IL-33-his [4] = biological target: T1, Human IL-33-his; experiment: SPR Biacore 8K as Example 14, antibody captured, antigen as analyte
Method: (§3) A chip with covalently coupled Protein A/G (purchased from GE Healthcare, catalog number BR-1005-30) was used to capture each antibody to be tested, and the relevant operating parameters were as follows: The antibody concentration was […], the contact time was 75 s, the flow rate was […], and the regeneration contact time was 30 s. The IL-33-his antigen was diluted with HBS-EP pH7.4 buffer solution (purchased from GE Healthcare, catalog number BR-1006-69). The maximum concentration was 50 nM, and diluted to 0.39 nM by two-fold dilution. Duplicate wells and 0 concentration point well were set, and 6M guanidine hydrochloride solution was used as the regeneration buffer. The sample was injected on Biacore 8K according to the following parameters, the binding time was 180 s, the dissociation time was 900 s, the flow rate was 30 μL/min, and the regeneration contact time was 30 s. After running, Biacore 8K Evaluation Software was used to analyze the data according to the “1:1 binding kinetics model”, and the binding kinetics parameters of each antibody to IL-33 were obtained.
(§4) The experimental methods were referred to Example 14, in which the antigens cynomolgus IL-33 protein (purchased from Sino catalog number 90912-CNAE) and mouse IL-33 protein (purchased from R&D, 3626-ML-010/CF) were used, and human IL-33 protein was used as the control. Both 864F3-Hu4 and 874F7-Hu1 cross-react with cynomolgus IL-33 protein, and are consistent with the characteristics of each antibody binding to human IL-33 protein.

Cynomolgus IL-33-his = biological target: T4, Cynomolgus IL-33-his (cynomolgus, UniProt A0A2K5W3I1 112-269, biotinylated in the ELISA of Example 6); experiment: as above
T4 construct: Bought protein; also called cynomolgus IL-33 protein; Cynomolgus monkeys IL-33
T4 sequence: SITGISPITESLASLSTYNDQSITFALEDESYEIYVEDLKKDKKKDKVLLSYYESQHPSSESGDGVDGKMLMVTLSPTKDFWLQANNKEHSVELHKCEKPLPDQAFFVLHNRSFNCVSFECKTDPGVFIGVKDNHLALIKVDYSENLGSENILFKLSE
Method: as §3, §4

Mouse IL-33 protein = biological target: T5, Mouse IL-33 protein (mouse, UniProt Q8BVZ5 109-266); experiment: as above
T5 construct: Bought protein
T5 sequence (looked up): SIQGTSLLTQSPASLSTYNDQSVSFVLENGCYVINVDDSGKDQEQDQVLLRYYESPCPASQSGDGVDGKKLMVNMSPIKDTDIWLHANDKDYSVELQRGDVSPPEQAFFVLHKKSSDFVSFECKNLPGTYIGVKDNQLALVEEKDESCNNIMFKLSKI
Method: as §3, §4

- IC50 of inhibition of IL-33-induced IL-6 expression in HUVEC cells (Human IL-33-his [1]): 650 pM
- IC50 of inhibition of IL-33-induced IL-8 expression in HUVEC cells (Human IL-33-his [1]): 350 pM
B1: 874F7 (antibody, V domains shown)
VH: QVQLKESGPGLVAPSHSLSITCNVSGFSLSKYGVHWIRQIPGRGLDWLGVLRAGGSTGYNSALMSRLSISKDSSKSQVFLKMNDLRTDDTAVYFCVRDHYYYSSYGGFVYWGQGTLVTVSA
VL: DIQMTQSPASQSASLGESVTITCLASQTIGAWLAWYRQQPGKSPQLLIYAATRLADGVPSRFSGSGSGTEFSFKINNLQAEDFVSYYCQQLDSSPYTFGGGTRLEM
notes: Murine hybridoma antibody purified on Protein G; also called murine antibody 874F7

- EC50 [2]: 120 pM
- IC50 of inhibition of IFNγ secretion by NK cells induced by IL-33 (Human IL-33-his [1]): 742 pM
- IC50 of inhibition of IL-5 secretion of KU812 cells induced by IL-33 (Human IL-33-his [1]): 7830 pM
- IC50 of inhibition of IL-13 secretion of KU812 cells induced by IL-33 (Human IL-33-his [1]): 5220 pM
- IC50 of the inhibitory effect on IL-6 expression in HUVEC cells induced by IL-33 (Human IL-33-his [1]): 51 pM
- IC50 of the inhibitory effect on the IFN-γ secretion of PBMC induced by IL-33 (Human IL-33-his [1]): 850 pM
- EC50 [3]: 150 pM
- Kd (Human IL-33-his [4]): 1130 pM
- koff (Human IL-33-his [4]): 0.000204 s⁻¹
- kon (Human IL-33-his [4]): 180000 M⁻¹ s⁻¹
- Kd (Cynomolgus IL-33-his): 1270 pM
- koff (Cynomolgus IL-33-his): 0.000349 s⁻¹
- kon (Cynomolgus IL-33-his): 273000 M⁻¹ s⁻¹
- Kd (Mouse IL-33 protein): 33200 pM
- koff (Mouse IL-33 protein): 0.00212 s⁻¹
- kon (Mouse IL-33 protein): 64000 M⁻¹ s⁻¹
B2: 874F7-Hu1 (antibody, human IgG4 S228P, kappa)
heavy: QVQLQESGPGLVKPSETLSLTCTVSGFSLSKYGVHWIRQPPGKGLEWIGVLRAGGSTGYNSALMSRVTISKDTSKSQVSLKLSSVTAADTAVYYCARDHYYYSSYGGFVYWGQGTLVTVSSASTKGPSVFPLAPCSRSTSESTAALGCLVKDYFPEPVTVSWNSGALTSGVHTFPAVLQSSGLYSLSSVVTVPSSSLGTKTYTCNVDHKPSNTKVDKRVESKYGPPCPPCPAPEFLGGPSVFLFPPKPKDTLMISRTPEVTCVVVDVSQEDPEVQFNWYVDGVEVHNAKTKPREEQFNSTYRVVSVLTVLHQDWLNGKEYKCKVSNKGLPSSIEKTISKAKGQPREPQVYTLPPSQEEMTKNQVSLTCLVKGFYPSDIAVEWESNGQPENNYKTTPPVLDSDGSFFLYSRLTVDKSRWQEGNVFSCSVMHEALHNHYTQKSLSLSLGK
light: DIQMTQSPSSVSASVGDRVTITCLASQTIGAWLAWYQQKPGKSPKLLIYAATRLADGVPSRFSGSGSGTDFTLTISSLQPEDFATYYCQQLDSSPYTFGQGTKVEIKRTVAAPSVFIFPPSDEQLKSGTASVVCLLNNFYPREAKVQWKVDNALQSGNSQESVTEQDSKDSTYSLSSTLTLSKADYEKHKVYACEVTHQGLSSPVTKSFNRGEC
notes: also called 874F7-Hul; humanized antibody 874F7-Hu1
